Consider 2 molecules from patent US20230348603A1 (VERSEAU THERAPEUTICS, published 2023).

Assay [1] concerns the target T1, Human VSIG4-L-Fc (human).
T1 construct: also called hVSIG4-L-Fc; hVSIG4-L
Description: BLI binning on hVSIG4-L-Fc, competitor 12A12 first.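 Note: normalized to binding of second antibody without first competitor antibody.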

The target of assay [2] is T1, Human VSIG4-L-Fc. The assay can be described thus: BLI binning on hVSIG4-L-Fc, competitor 14D12 first.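 Note: normalized to binding of second antibody without first competitor antibody.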
The target in assay [3] is T2, Cynomolgus Monkey VSIG4-L-His (cynomolgus monkey).
T2 construct: ECD with His tag; also called cyVSIG4-L; cyno VSIG4-L-His
T2 chain: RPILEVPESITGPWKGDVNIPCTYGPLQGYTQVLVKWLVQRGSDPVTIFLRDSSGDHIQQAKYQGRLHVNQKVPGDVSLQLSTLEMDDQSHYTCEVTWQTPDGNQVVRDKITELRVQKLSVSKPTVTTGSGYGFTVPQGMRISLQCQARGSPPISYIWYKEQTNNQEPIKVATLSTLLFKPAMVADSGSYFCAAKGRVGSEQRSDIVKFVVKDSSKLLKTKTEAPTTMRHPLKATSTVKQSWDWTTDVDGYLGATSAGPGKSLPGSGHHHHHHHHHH
The assay can be described thus: ELISA, IgG 50 nM on coated antigen;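 note: Mouse-human chimeric IgG4 antibodies incubated 1 h on plate-coated VSIG4 proteins, bound IgG detected with HRP-labelled anti-human IgG, irrelevant antibody and protein as specificity controls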; ELISA, bivalent IgG on plate-coated cyVSIG4-L (avid format). In general terms: ELISA stands for enzyme-linked immunosorbent assay.

The target in assay [4] is T1, Human VSIG4-L-Fc. The assay can be described thus: BLI binning on hVSIG4-L-Fc, competitor 15C03 first.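 Note: normalized to binding of second antibody without first competitor antibody.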
For assay [5], the target named is T1, Human VSIG4-L-Fc. The assay can be described thus: BLI binning on hVSIG4-L-Fc, competitor 13H11 first.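 Note: normalized to binding of second antibody without first competitor antibody.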
The target in assay [6] is T1, Human VSIG4-L-Fc. Description: BLI binning on hVSIG4-L-Fc, competitor 12A08 first.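 Note: normalized to binding of second antibody without first competitor antibody.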
Assay [7] has as its target T3, Human VSIG4-L-CHO (human VSIG4 long isoform on CHO-K1 cells) (human, UniProt Q9Y279 20-399).
T3 construct: also called hVSIG4-L (flow cytometry)
T3 sequence: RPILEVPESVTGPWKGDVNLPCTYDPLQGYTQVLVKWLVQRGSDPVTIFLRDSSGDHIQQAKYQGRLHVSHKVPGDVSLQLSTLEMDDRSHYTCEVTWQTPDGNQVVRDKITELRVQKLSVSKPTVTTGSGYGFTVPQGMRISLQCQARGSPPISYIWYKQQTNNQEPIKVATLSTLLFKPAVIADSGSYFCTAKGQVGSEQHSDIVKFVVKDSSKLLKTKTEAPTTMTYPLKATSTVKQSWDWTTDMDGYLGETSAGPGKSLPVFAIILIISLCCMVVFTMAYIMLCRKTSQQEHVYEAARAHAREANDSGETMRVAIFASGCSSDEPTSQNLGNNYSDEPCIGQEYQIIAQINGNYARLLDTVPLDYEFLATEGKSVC
Description: flow cytometry (FJB), 200 nM mAb, huVSIG4-L CHO-K1 over parental CHO-K1. A general note: Flow cytometry measures light scatter and fluorescence of single cells or particles in a stream.

For assay [8], the target named is T3, Human VSIG4-L-CHO (human VSIG4 long …). The assay can be described thus: flow cytometry (FJB), 200 nM mAb, huVSIG4-L CHO-K1 cells.
Assay [9] has as its target T1, Human VSIG4-L-Fc. Description: BLI binning on hVSIG4-L-Fc, competitor 16E10 first.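 Note: normalized to binding of second antibody without first competitor antibody.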
Assay [10] concerns the target T4, Human VSIG4-L-His (human, UniProt Q9Y279 20-283).
T4 construct: long isoform ECD with His tag; also called hVSIG4-L
T4 sequence: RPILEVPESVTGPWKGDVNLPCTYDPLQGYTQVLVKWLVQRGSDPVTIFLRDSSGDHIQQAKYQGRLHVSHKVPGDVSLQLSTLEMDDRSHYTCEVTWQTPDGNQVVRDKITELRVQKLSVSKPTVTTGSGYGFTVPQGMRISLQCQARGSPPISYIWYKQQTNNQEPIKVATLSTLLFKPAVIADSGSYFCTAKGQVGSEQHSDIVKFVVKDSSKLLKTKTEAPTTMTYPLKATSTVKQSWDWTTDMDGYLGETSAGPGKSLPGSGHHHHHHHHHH
The assay can be described thus: SPR (FJB).

The target in assay [11] is T1, Human VSIG4-L-Fc. The assay can be described thus: ligand competition ELISA (FJB), blocked ligand iC3b, 200 nM mAb.
The target in assay [12] is T1, Human VSIG4-L-Fc. The assay can be described thus: BLI binning on hVSIG4-L-Fc, competitor 14C05 first.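 Note: normalized to binding of second antibody without first competitor antibody.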
In assay [13] the target is T1, Human VSIG4-L-Fc. Description: BLI binning on hVSIG4-L-Fc, competitor 15C04 first.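 Note: normalized to binding of second antibody without first competitor antibody.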
The target in assay [14] is T1, Human VSIG4-L-Fc. Description: ligand competition ELISA (FJB), blocked ligand C3b, 200 nM mAb.
Assay [15] addresses T4, Human VSIG4-L-His. The assay can be described thus: BLI (Octet), IgG on AHC sensor, antigen 100 nM.
Assay [16] addresses T5, Human VSIG4-S-His (human, UniProt Q9Y279 20-283).
T5 construct: short isoform ECD with His tag; also called hVSIG4-S; VISG4-S-His
T5 sequence: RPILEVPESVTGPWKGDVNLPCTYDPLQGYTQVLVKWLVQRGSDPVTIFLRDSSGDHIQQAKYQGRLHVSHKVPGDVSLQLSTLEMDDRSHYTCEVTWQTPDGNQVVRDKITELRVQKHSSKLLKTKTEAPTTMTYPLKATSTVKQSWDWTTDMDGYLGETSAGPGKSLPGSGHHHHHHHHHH
The assay can be described thus: BLI (Octet), IgG on AHC sensor, antigen 100 nM.

In assay [17] the target is T6, Human VSIG4-S-Fc (human).
T6 construct: short isoform ECD fused to human Fc1; also called hVSIG4-S
Description: ELISA, IgG 50 nM on coated antigen.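 Note: Mouse-human chimeric IgG4 antibodies incubated 1 h on plate-coated VSIG4 proteins, bound IgG detected with HRP-labelled anti-human IgG, irrelevant antibody and protein as specificity controls.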

Assay [18] deals with T1, Human VSIG4-L-Fc. The assay can be described thus: ELISA, IgG 50 nM on coated antigen.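 Note: Mouse-human chimeric IgG4 antibodies incubated 1 h on plate-coated VSIG4 proteins, bound IgG detected with HRP-labelled anti-human IgG, irrelevant antibody and protein as specificity controls.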
In assay [19] the target is T7, Mouse VSIG4-His (mouse).
T7 construct: ECD with His tag; also called mVSIG4
T7 chain: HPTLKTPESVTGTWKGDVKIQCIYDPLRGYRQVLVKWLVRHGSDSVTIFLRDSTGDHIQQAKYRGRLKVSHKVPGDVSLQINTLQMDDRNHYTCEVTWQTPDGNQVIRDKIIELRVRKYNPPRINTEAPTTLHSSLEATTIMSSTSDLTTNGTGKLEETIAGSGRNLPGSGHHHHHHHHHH
The assay can be described thus: ELISA, IgG 50 nM on coated antigen.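 Note: Mouse-human chimeric IgG4 antibodies incubated 1 h on plate-coated VSIG4 proteins, bound IgG detected with HRP-labelled anti-human IgG, irrelevant antibody and protein as specificity controls.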

Assay [20] addresses T1, Human VSIG4-L-Fc. Description: BLI binning on hVSIG4-L-Fc, competitor 15A06 first.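 Note: normalized to binding of second antibody without first competitor antibody.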
In assay [21] the target is T1, Human VSIG4-L-Fc. Description: BLI binning on hVSIG4-L-Fc, competitor 16E03 first.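 Note: normalized to binding of second antibody without first competitor antibody.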
Assay [22] has as its target T3, Human VSIG4-L-CHO (human VSIG4 long …). The assay can be described thus: flow cytometry, CHO-K1 cells expressing hVSIG4-L.
In assay [23] the target is T1, Human VSIG4-L-Fc. Description: ligand competition ELISA (FJB), blocked ligand C3b.
Assay [24] deals with T1, Human VSIG4-L-Fc. The assay can be described thus: ligand blocking of iC3b, IgG.
The target in assay [25] is T1, Human VSIG4-L-Fc. The assay can be described thus: ligand blocking of C3b, IgG.
The target in assay [26] is T1, Human VSIG4-L-Fc. Description: ligand competition ELISA (FJB), blocked ligand iC3b.

T6 sequence (chain, as listed by the source limits assumed): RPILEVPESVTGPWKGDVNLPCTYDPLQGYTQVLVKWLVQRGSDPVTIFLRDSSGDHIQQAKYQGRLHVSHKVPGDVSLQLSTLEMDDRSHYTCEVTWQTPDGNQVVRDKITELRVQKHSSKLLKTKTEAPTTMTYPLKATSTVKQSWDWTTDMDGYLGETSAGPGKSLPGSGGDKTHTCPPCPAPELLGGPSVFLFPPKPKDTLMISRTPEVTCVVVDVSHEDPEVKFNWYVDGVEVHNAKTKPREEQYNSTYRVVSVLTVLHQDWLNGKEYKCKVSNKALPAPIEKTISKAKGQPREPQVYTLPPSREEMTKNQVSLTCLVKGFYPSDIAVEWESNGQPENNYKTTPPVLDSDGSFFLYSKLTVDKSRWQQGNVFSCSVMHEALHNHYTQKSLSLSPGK

B1: 16E03 mouse/human chimeric IgG4 (S228P) kappa (antibody, V domains shown)
VH: QVQLQQSGAELARPGASVKMSCKASGYTFTSYTMHWIKQRPGQGLEWIGYINPSSGHTYYNQKFKDKATLTPDKSSSTAYMQLTSLTSEDSAVYYCARRIPTAYAMDYWGQGTSVTVSS
VL: EIQMTQSHKFMSTSVGDRVSITCKASQDVGTAVAWYQQKPGQSPKLLIYWASTRHTGVPDRFTGSGSGTDFTLTISNVQSEDLADYFCQQYSSYPLTFGAGTKLELKR
Consider B1, for which the “normalized maximum binding nm shift” value is 0.9 normalized in assay [1]; 0.79 normalized in assay [2]; 0.1 normalized in assay [4]; 0.76 normalized in assay [5]; 0.13 normalized in assay [6]; 0.37 normalized in assay [9]. For the same molecule, the “normalized maximum binding nm shift” value in assay [12] is 0.78 normalized; in assay [13] it was 0.86 normalized; in assay [20], 0.83 normalized; in assay [21], 0.04 normalized. Further, the “ELISA OD450” value in assay [3] was determined as 4.36 OD450; in assay [17], 4.13 OD450; in assay [18], 4.5 OD450; in assay [19] it was 0.054 OD450. The “Binding (200 nM) Fold-Over-Parental” value in [7] came to 23 fold. Also, the “Binding (200 nM) MFI” value in [8] was found to be 30400 MFI. The dissociation constant (Kd) (usually the free concentration of one partner at which half of the binding sites on the other are occupied at equilibrium, for simple one-to-one binding) turned out to be 29.7 nM in assay [10], 49.3 nM in [15] and 49.3 nM in assay [16]. Moreover, the “% Block iC3b (200 nM mAb)” value in [11] is -3%. In [14], the “% Block C3b (200 nM mAb)” value is -192%. In addition, the response in assay [22] was half-maximal at 1 nM (EC50).

B2: 15C03 mouse/human chimeric IgG4 (S228P) kappa (antibody, V domains shown)
VH: EVKLLESGPGLVKPSQSLSLTCTVTGYSITSDYAWNWIRQFPGNKLEWMGYISYSGSTRYNPSLKSRISITRDTSNNQFFLQLNSVTTEDTATYYCARSGYAAMDYWGQGTSVTVSS
VL: ENVLTQSPAIMSASPGEKVTMTCRASSSVSSSYLHWYQQKSGASPKLWIYSTSNLASGVPARFSGSGSGTSYSLTISSVEAEDAATYYCQQYSGYPLTFGSGTKLEIKR
In the case of B2, the “normalized maximum binding nm shift” value in [1] turned out to be 0.76 normalized; in assay [2], 0.41 normalized; in [4], 0.15 normalized; in assay [5], 0.74 normalized; in assay [6], 0.8 normalized; in [9] it was 0.93 normalized. The “normalized maximum binding nm shift” value is 0.44 normalized in [12], 0.89 normalized in [13], 0.82 normalized in [20] and 0.13 normalized in [21]. Also, the “ELISA OD450” value in assay [3] was found to be 4.5 OD450; in assay [17] it was 3.64 OD450; in assay [18] it was 4.4 OD450; in assay [19], 0.057 OD450. The results for the IC50 in assay [23] and in assay [26] were 2.4 nM and 12.8 nM, respectively. For the same molecule, the “Binding (200 nM) Fold-Over-Parental” value in assay [7] is 83 fold. Besides, in [24], the “Percent Blocking iC3b” value is 90%. In assay [8], the “Binding (200 nM) MFI” value was determined as 48900 MFI. For the same molecule, in [25], the “Percent Blocking C3b” value was 90%. Moreover, the Kd was 17.9 nM in assay [10], 32.1 nM in assay [15] and 18.6 nM in assay [16]. Besides, the EC50 – broadly, the concentration that produces a half-maximal response – in [22] came out at 2.3 nM.
